The source of these data is paper PMC6936856.

Test [1] deals with JR-FL Env gp160 on pseudovirus (HIV-1 (JR-FL)) (UniProt Q75760).
For test [2] the target is unchanged. The source holds these as a separate data set.

B1: DH501 IgG1 (antibody, V domains shown)
VH: QVTLKEFGPALVKPTQPLTLTCSFSGFSLRSSDTAVVWIRQPPGKALEWLAAIYWDDVEHINPSLKSRLSISKDSPNSLVVLTMANMDPVDTATYYCGRVRFVSGGYYTDRIDSWGPGLLVTVSS
VL: QSVLTQPPSVSGAPGQRVTISCAGTKSNIGDCSVSWYQQLPGATPRLLIYQNNNRPSGVSDRFSGSKSGTSASLAITGLQTEDEADYFCLSYDTSFSGWRFGGGTRLTVL
As to B1, in test [1], the IC50 of neutralisation of kifunensine-treated (Man9GlcNAc2-enriched) JR-FL pseudovirus, TZM-bl cells came out at 0.09 µg/mL.

B2: DH501 with HFWR4 somatic mutations reverted to the UCA sequence (antibody, V domains shown)
VH: QVTLKEFGPALVKPTQPLTLTCSFSGFSLRSSDTAVVWIRQPPGKALEWLAAIYWDDVEHINPSLKSRLSISKDSPNSLVVLTMANMDPVDTATYYCGRVRFVSGGYYTDRIDSWGQGVLVTVSS
VL: QSVLTQPPSVSGAPGQRVTISCAGTKSNIGDCSVSWYQQLPGATPRLLIYQNNNRPSGVSDRFSGSKSGTSASLAITGLQTEDEADYFCLSYDTSFSGWRFGGGTRLTVL
For the molecule B2, the IC50 of neutralisation of kifunensine-treated JR-FL, TZM-bl cells in test [2] worked out at 4.34 µg/mL.

B3: DH501 H/UCA L chimeric antibody (antibody, V domains shown)
VH: QVTLKEFGPALVKPTQPLTLTCSFSGFSLRSSDTAVVWIRQPPGKALEWLAAIYWDDVEHINPSLKSRLSISKDSPNSLVVLTMANMDPVDTATYYCGRVRFVSGGYYTDRIDSWGPGLLVTVSS
VL: QSVLTQPPSVSGAPGQRVTISCTGSSSNIGGYYVSWYQQLPGTTPKLLIYQDNKRPSGVSDRFSGSKSGTSASLTITGLQTEDEADYYCLSYDTSFSGWRFGGGTRLTVL
As for B3, the IC50 of neutralisation of kifunensine-treated (Man9GlcNAc2-enriched) JR-FL pseudovirus, TZM-bl cells in test [1] was determined as 0.06 µg/mL.
